Assay results as given in IntAct's records for PubMed 25770211.

B1: 5-hydroxytryptamine receptor 2C (Homo sapiens), P28335 (parent)
chain: MVNLRNAVHSFLVHLIGLLVWQSDISVSPVAAIVTDIFNTSDGGRFKFPDGVQNWPALSIVIIIIMTIGGNILVIMAVSMEKKLHNATNYFLMSLAIADMLVGLLVMPLSLLAILYDYVWPLPRYLCPVWISLDVLFSTASIMHLCAISLDRYVAIRNPIEHSRFNSRTKAIMKIAIVWAISIGVSVPIPVIGLRDEEKVFVNNTTCVLNDPNFVLIGSFVAFFIPLTIMVITYCLTIYVLRRQALMLLHGHTEEPPGLSLDFLKCCKRNTAEEENSANPNQDQNARRRKKKERRPRGTMQAINNERKASKVLGIVFFVFLIMWCPFFITNILSVLCEKSCNQKLMEKLLNVFVWIGYVCSGINPLVYTLFNKIYRRAFSNYLRCNYKVEKKPPVRQIPRVAATALSGRELNVNIYRHTNEPVIEKASDNEPGIEMQVENLELPVNPSSVVSERISSV
partner: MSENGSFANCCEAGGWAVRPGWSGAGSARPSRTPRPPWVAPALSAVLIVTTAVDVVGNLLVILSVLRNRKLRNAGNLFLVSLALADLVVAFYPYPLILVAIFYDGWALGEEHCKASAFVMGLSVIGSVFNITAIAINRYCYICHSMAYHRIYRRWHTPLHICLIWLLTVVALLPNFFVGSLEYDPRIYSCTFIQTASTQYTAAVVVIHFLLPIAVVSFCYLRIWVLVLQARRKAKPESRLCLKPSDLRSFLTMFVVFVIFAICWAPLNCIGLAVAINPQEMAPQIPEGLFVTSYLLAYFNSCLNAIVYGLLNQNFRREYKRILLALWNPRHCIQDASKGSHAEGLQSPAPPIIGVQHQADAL

Variants of: B1
Settings: with mtr1b_human MTNR1B

| effect of a mutation on the interaction | Variant |
| --- | --- |
| with no effect | S138N |
